For experiment [1], the target named is […] presented by HLA-A*0201 (EBV; human). Nature of the experiment: cell-based or functional assay.
Experiment [2] deals with […] presented by HLA-A*0201 (HCMV; human). Nature of the experiment: cell-based or functional assay.

In the case of “TCR recognizing […] presented by A*0201 (PDB #3REV)”, in experiment [1], the luciferase induction, reporter T cells + U-87 APCs, short cassette 9AA (relative to uninfected controls) is 12; the luciferase induction, reporter T cells + U-87 APCs, short cassette 17AA (relative to uninfected controls) was found to be 10.3; the luciferase induction, reporter T cells + U-87 APCs, short cassette 25AA (relative to uninfected controls) amounted to 14.6; the luciferase induction, reporter T cells + U-87 APCs, short cassette AAY (relative to uninfected controls) is 11.3. Moreover, in experiment [1], the luciferase induction, reporter T cells + U-87 APCs, short cassette DPP (relative to uninfected controls) came out at 1.1; the luciferase induction, reporter T cells + U-87 APCs, short cassette RR (relative to uninfected controls) amounted to 8.5; the luciferase induction, reporter T cells + U-87 APCs, targeting cassette A is 6.1; the luciferase induction, reporter T cells + U-87 APCs, targeting cassette B was found to be 6.3. For the same substance, in experiment [1], the luciferase induction, reporter T cells + U-87 APCs, targeting cassette C was determined as 7.6; the luciferase induction, reporter T cells + U-87 APCs, targeting cassette D turned out to be 7; the luciferase induction, reporter T cells + U-87 APCs, targeting cassette E was found to be 5.9; the luciferase induction, reporter T cells + U-87 APCs, targeting cassette F turned out to be 3.7. For the same substance, in experiment [1], the luciferase induction, reporter T cells + U-87 APCs, targeting cassette G is 7.6; the luciferase induction, reporter T cells + U-87 APCs, targeting cassette H stood at 5.4; the luciferase induction, reporter T cells + U-87 APCs, targeting cassette J was determined as 6.4; the luciferase induction, reporter T cells, short cassette AAY is 11.3.

Regarding “TCR recognizing […] presented by A*0201 (PDB #5D2N)”, in experiment [2], the luciferase induction, reporter T cells + U-87 APCs, short cassette 9AA (relative to uninfected controls) was found to be 33.6; the luciferase induction, reporter T cells + U-87 APCs, short cassette 17AA (relative to uninfected controls) was 42.8; the luciferase induction, reporter T cells + U-87 APCs, short cassette 25AA (relative to uninfected controls) worked out at 42.3; the luciferase induction, reporter T cells + U-87 APCs, short cassette AAY (relative to uninfected controls) turned out to be 24.5. For the same substance, in experiment [2], the luciferase induction, reporter T cells + U-87 APCs, short cassette DPP (relative to uninfected controls) worked out at 0.9; the luciferase induction, reporter T cells + U-87 APCs, short cassette RR (relative to uninfected controls) is 21.7; the luciferase induction, reporter T cells + U-87 APCs, targeting cassette A amounted to 32.5; the luciferase induction, reporter T cells + U-87 APCs, targeting cassette B stood at 31.8. Also, in experiment [2], the luciferase induction, reporter T cells + U-87 APCs, targeting cassette C was 29.1; the luciferase induction, reporter T cells + U-87 APCs, targeting cassette D worked out at 29.1; the luciferase induction, reporter T cells + U-87 APCs, targeting cassette E was determined as 28.4; the luciferase induction, reporter T cells + U-87 APCs, targeting cassette F amounted to 20.4. Moreover, in experiment [2], the luciferase induction, reporter T cells + U-87 APCs, targeting cassette G amounted to 35; the luciferase induction, reporter T cells + U-87 APCs, targeting cassette H was 30.3; the luciferase induction, reporter T cells + U-87 APCs, targeting cassette J amounted to 38.1; the luciferase induction, reporter T cells, short cassette AAY is 24.5.

The values above are taken from patent publication US20230020089A1.
